What all share (assay type): cell-based
Assay [1] has as its system MNC. Put plainly: MSC production by the kind of TGFβ receptor inhibitor (Example 4). Particulars: 10 μM SB431542, 0.5 μM A-83-01 or 0.5 μM LDN-193189 in medium for seeding; Vitronectin (20-398 aa) coating; day 12 (FIG. 7). The protocol: MNC (Lonza) was thawed using the following medium for seeding (1), (2) or (3). The above-mentioned cells were seeded at a concentration of 2.6×10^6 cells/well in a 24-well plate coated with Vitronectin (20-398 aa) (wako) at a concentration of 1.5 μg/cm^2, and cultured under the conditions of 37° C., 5% CO2. The next day of seeding, the entire amount of the medium in the plate was replaced with a medium for seeding (1), (2) or (3), and the medium for seeding (1), (2) or (3) in an amount corresponding to 20% of the amount of the medium in the plate was further added on day 3 and day 5 after seeding. Medium for seeding (1): StemFit (registered trade mark) AKO3N medium (Ajinomoto Co., Inc.) SOLUTION A, ¼ StemFit (registered trade mark) AKO3N medium (Ajinomoto Co., Inc.) SOLUTION B, 3 ng/mL bFGF (peprotech), 10 μM SB431542 (Stemgent), 1/100 Lipid Concentrate (Life Technologies), 10 nM Dexamethasone (Sigma-Aldrich), 10 ng/mL PDGF-BB (FUJIFILM Wako Pure Chemical Industries, Ltd.), 1 mM Lithium Chloride (Sigma-Aldrich)
Medium for seeding (2): StemFit (registered trade mark) AKO3N medium (Ajinomoto Co., Inc.) SOLUTION A, ¼ StemFit (registered trade mark) AKO3N medium (Ajinomoto Co., Inc.) SOLUTION B, 3 ng/mL bFGF (peprotech), 0.5 μM A-83-01 (wako), 1/100 Lipid Concentrate (Life Technologies), 10 nM Dexamethasone (Sigma-Aldrich), 10 ng/mL PDGF-BB (FUJIFILM Wako Pure Chemical Industries, Ltd.), 1 mM Lithium Chloride (Sigma-Aldrich)
Medium for seeding (3): StemFit (registered trade mark) AKO3N medium (Ajinomoto Co., Inc.) SOLUTION A, ¼ StemFit (registered trade mark) AKO3N medium (Ajinomoto Co., Inc.) SOLUTION B, 3 ng/mL bFGF (peprotech), 0.5 μM LDN-193189 (Stemgent), 1/100 Lipid Concentrate (Life Technologies), 10 nM Dexamethasone (Sigma-Aldrich), 10 ng/mL PDGF-BB (FUJIFILM Wako Pure Chemical Industries, Ltd.), 1 mM Lithium Chloride (Sigma-Aldrich) […]
After confirming that the cells became sub-confluent, the cells were passaged on day 12 after seeding, and the number of cells was measured.

The subject of assay [2] is bone marrow mononuclear cells (MNC). Put plainly: Formation of MSC cell aggregates from MNC seeded on coated plates in serum-free medium (Example 1). The conditions noted are these: plate coated at 1.5 μg/cm^2 at MNC seeding, day 5 after seeding, compared with Fibronectin coating. As to the method:
(§1) Due to the limitations of purification techniques, bone marrow mononuclear cells (MNC) separated from bone marrow are slightly contained with mesenchymal stem cells (MSC). In this Example, a method for producing MSC from MNC by using a serum-free medium is verified. Bone marrow mononuclear cells (MNC) (Lonza) were thawed using the following medium for seeding. The above-mentioned cells were seeded at a concentration of 2.6×10^6 cells/well in a 24-well plate coated with Fibronectin (Sigma) or Vitronectin (wako) each at a concentration of 1.5 μg/cm^2, and cultured under the conditions of 37° C., 5% CO2. The next day of seeding, the entire amount of the medium in the plate was replaced with a medium for seeding, and the medium for seeding in an amount corresponding to 20% of the amount of the medium in the plate was further added on day 3 and day 5 after seeding. Medium for seeding: StemFit (registered trade mark) AKO3N medium (Ajinomoto Co., Inc.) SOLUTION A, StemFit (registered trade mark) AKO3N medium (Ajinomoto Co., Inc.) SOLUTION B, 3 ng/mL bFGF (peprotech), 10 μM 5B431542 (Stemgent), 1/100 Lipid Concentrate (Life Technologies), 10 nM Dexamethasone (Sigma-Aldrich), 10 ng/mL PDGF-BB (FUJIFILM Wako Pure Chemical Industries, Ltd.), 1 mM Lithium Chloride (Sigma-Aldrich)

For assay [3] the test system is unchanged. The assay can be described thus: Number of cells after re-seeding of dissociated aggregates (Example 1). Particulars: coating at MNC seeding 1.5 μg/cm^2, aggregates re-seeded day 7, counted day 13, compared with Fibronectin coating. As to the method: as §1, with “Medium for seeding: StemFit (registered trade mark) AKO3N medium (Ajinomoto Co., Inc.) SOLUTION A, StemFit (registered trade mark) AKO3N medium (Ajinomoto Co., Inc.) SOLUTION B, 3 ng/mL bFGF (peprotech), 10 μM 5B431542 (Stemgent), 1/100 Lipid Concentrate (Life Technologies), 10 nM Dexamethasone (Sigma-Aldrich), 10 ng/mL PDGF-BB (FUJIFILM Wako Pure Chemical Industries, Ltd.), 1 mM Lithium Chloride (Sigma-Aldrich)” left out
After confirming that the cells became sub-confluent, the cells were passaged on day 13 after seeding, and the number of cells was measured.

Assay [4] concerns MNC. Put plainly: MSC production from MNC by the kind of Vitronectin (Example 2). The conditions noted are these: coating 1.5 μg/cm^2, 2.6×10^6 cells/well, 13 days after MNC seeding (FIG. 4). The protocol:
MNC (Lonza) was thawed using the following medium for seeding (serum-free). The above-mentioned cells were seeded at a concentration of 2.6×10^6 cells/well in 24-well plates coated with Vitronectin (20-398 aa) (wako) (corresponding to amino acid Nos. 1-379 of SEQ ID NO: 1), Vitronectin (VTN-N, 62-478 aa) (Life Technologies) (corresponding to amino acid Nos. 43-459 of SEQ ID NO: 1) or Vitronectin (Full length, 20-478 aa) (Sigma) (corresponding to SEQ ID NO: 1) at a concentration of 1.5 μg/cm^2, and cultured under the conditions of 37° C., 5% CO2. In addition, the cells were seeded at a concentration of 1.6×10^6 cells/well in a 24-well plate coated with Vitronectin (20-398 aa) (wako) or Synthemax II (CORNING) at concentrations of 1.5 μg/cm^2 and 5.0 μg/cm^2, respectively, and cultured under the conditions of 37° C., 5% CO2. Synthemax II is a vitronectin-based synthetic peptide containing RGD motif and flanking sequence. The next day of seeding, the entire amount of the medium in the plate was replaced with a medium for seeding, and the medium for seeding in an amount corresponding to 20% of the amount of the medium in the plate was further added on day 3 and day 5 after seeding. […]
After confirming that the cells became sub-confluent, the cells were passaged on days 12 and 13 after seeding, and the number of cells was measured.

Entries after “also recorded” stand apart in the source; their conditions may differ.

Turning to `Cc1cccc(-c2nn(C(=S)Nc3ccccc3)cc2-c2ccnc3ccccc23)n1` [A-83-01], in the assay with MNC [1], the “MSC production from MNC (number of MSC)” value is “MSC could be efficiently produced from MNC”. Same read-out and setting: to `c1ccc2c(-c3cnn4cc(-c5ccc(N6CCNCC6)cc5)cnc34)ccnc2c1` [LDN-193189] belongs “MSC could be efficiently produced from MNC”. Same read-out and setting: with `NC(=O)c1ccc(-c2nc(-c3ccc4c(c3)OCO4)c(-c3ccccn3)[nH]2)cc1` [SB431542] the entry was “MSC could be efficiently produced from MNC”.

B1: Vitronectin: Vitronectin (wako) used to coat 24-well plates at 1.5 μg/cm^2 in Example 1 (protein, UniProt P04004 20-478, looked up)
Vitronectin: DQESCKGRCTEGFNVDKKCQCDELCSYYQSCCTDYTAECKPQVTRGDVFTMPEDEYTVYDDGEEKNNATVHEQVGGPSLTSDLQAQSKGNPEQTPVLKPEEEAPAPEVGASKPEGIDSRPETLHPGRPQPPAEEELCSGKPFDAFTDLKNGSLFAFRGQYCYELDEKAVRPGYPKLIRDVWGIEGPIDAAFTRINCQGKTYLFKGSQYWRFEDGVLDPDYPRNISDGFDGIPDNVDAALALPAHSYSGRERVYFFKGKQYWEYQFQHQPSQEECEGSSLSAVFEHFAMMQRDSWEDIFELLFWGRTSAGTRQPQFISRDWHGVPGQVDAAMAGRIYISGMAPRPSLAKKQRFRHRNRKGYRSQRGHSRGRNQNSRRPSRATWLSLFSSEESNLGANNYDDYRMDWLVPATCEPIQSVFFFSGDKYYRVNLRTRRVDTVDPPYPRSIAQYWLGCPAPGHL
Take B1: the “number of cell aggregates obtained” value in assay [2] is listed as “More cell aggregates were formed; also recorded: larger”. Further, the “number of cells obtained by the subsequent re-seeding” value in assay [3] was “larger”; in assay [3] (listed as vitronectin), “remarkably higher”.

B2: Vitronectin (20-398 aa) (wako): commercially available partial peptide of vitronectin, corresponding to amino acid Nos. 1-379 of SEQ ID NO: 1 (protein, listed as Homo sapiens)
chain: DQESCKGRCTEGFNVDKKCQCDELCSYYQSCCTDYTAECKPQVTRGDVFTMPEDEYTVYDDGEEKNNATVHEQVGGPSLTSDLQAQSKGNPEQTPVLKPEEEAPAPEVGASKPEGIDSRPETLHPGRPQPPAEEELCSGKPFDAFTDLKNGSLFAFRGQYCYELDEKAVRPGYPKLIRDVWGIEGPIDAAFTRINCQGKTYLFKGSQYWRFEDGVLDPDYPRNISDGFDGIPDNVDAALALPAHSYSGRERVYFFKGKQYWEYQFQHQPSQEECEGSSLSAVFEHFAMMQRDSWEDIFELLFWGRTSAGTRQPQFISRDWHGVPGQVDAAMAGRIYISGMAPRPSLAKKQRFRHRNRKGYRSQRGHSRGRNQNSRRPSR
As to B2, the “MSC production from MNC (number of MSC)” value in the assay on MNC [4] is given as “could produce MSC most efficiently from MNC”.

The values are drawn from patent publication US12516294B2, “Method for producing mesenchymal stem cells from living body-derived cell sample containing mesenchymal stem cells” (AJINOMOTO CO., INC., priority 2019, dated 2026).
